Common to all, as to assay: cAMP activity assay (pCRE β-galactosidase reporter), transfected HEK293T cells
Format in all cases: cell-based

One test addresses T1, RXFP1 Y57A (Homo sapiens, UniProt Q9HBX9, Y79A).
T1 construct: cells expressing full-length RXFP1 and mutants; expressed in transfected cells; host or cells: HEK293T
T1 sequence (Q9HBX9 23-757 Y79A limits assumed): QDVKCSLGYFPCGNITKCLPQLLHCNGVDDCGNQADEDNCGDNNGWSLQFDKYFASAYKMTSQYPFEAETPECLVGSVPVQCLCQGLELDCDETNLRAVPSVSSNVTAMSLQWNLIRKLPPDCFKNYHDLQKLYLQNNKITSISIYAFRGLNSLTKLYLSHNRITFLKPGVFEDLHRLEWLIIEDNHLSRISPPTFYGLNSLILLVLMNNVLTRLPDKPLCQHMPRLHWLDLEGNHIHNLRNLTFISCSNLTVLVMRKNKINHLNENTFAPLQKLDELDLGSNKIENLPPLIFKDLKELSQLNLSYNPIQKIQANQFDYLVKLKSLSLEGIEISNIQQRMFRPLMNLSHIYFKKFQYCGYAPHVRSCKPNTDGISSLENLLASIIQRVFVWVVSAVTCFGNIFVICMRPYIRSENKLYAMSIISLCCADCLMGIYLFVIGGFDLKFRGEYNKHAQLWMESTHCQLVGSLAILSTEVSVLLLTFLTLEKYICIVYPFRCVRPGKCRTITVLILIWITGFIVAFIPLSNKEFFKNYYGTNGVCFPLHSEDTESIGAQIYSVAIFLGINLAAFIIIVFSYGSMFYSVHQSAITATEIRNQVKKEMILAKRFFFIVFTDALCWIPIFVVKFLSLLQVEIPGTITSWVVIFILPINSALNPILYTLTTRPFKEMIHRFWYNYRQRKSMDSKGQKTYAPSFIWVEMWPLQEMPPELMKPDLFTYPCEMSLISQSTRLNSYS
As to conditions: construct Y57A, ±s.e.m. Summed up:
(§1)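 Absorbance at 570 nm from β-galactosidase cleavage of chlorophenol red-β-D-galactopyranoside, expressed as percentage of the maximal 5 μM Forskolin response (mean ± s.e.m., ≥3 experiments in triplicate). Stimulant was H2 relaxin in minimal media containing 1% DMSO.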

For another test, the target named is T2, RXFP1 N43N44-AA (Homo sapiens, UniProt Q9HBX9, N65A/N66A).
T2 construct: transiently transfected human embryonic kidney (HEK) 293T cells expressing full-length RXFP1 and mutants; expressed in transfected cells; host or cells: HEK293T
T2 sequence (Q9HBX9 23-757 N65A/N66A limits assumed): T1 sequence (Q9HBX9 23-757 Y79A limits assumed) with N43A, N44A, A57Y
Summed up:
as §1

The next test deals with T3, RXFP1 F66A (Homo sapiens, UniProt Q9HBX9, F88A).
T3 construct: cells expressing full-length RXFP1 and mutants; expressed in transfected cells; host or cells: HEK293T
T3 sequence (Q9HBX9 23-757 F88A limits assumed): T1 sequence (Q9HBX9 23-757 Y79A limits assumed) with A57Y, F66A
As to conditions: construct F66A, ±s.e.m. Summed up:
as §1

The mark [1] stands for this setting: percentage of maximum response to 5 μM Forskolin.

Numbering of substitutions follows the chain as printed.

For the substance “H2 relaxin: two-chain 6-kDa peptide hormone structurally related to insulin; recombinant human gene-2 H2 relaxin provided by Corthera”, the “H2 relaxin pEC50” value is on record as 10.93±0.10 (5) with RXFP1 Y57A (cAMP reporter); 8.29±0.63 (3) with RXFP1 N43N44-AA (construct N43N44-AA, cAMP reporter, ±s.e.m.); 11.20±0.08 with RXFP1 F66A (cAMP reporter). Further, the “H2 relaxin Emax” value in the test with RXFP1 Y57A (setting [1]) is 126.7±8.46 (5) %; with RXFP1 N43N44-AA (construct N43N44-AA, percentage of maximum response to 5 μM Forskolin, ±s.e.m.), 118.90±12.81 (3) %; in the test with RXFP1 F66A (setting [1]) it was 88.29±3.52 (3) %. In addition, the “loss of H2 relaxin-stimulated cAMP activity” value with RXFP1 N43N44-AA (N43A/N44A RXFP1 versus wild-type RXFP1) stood at 500 fold.
